From PMC10558804
Values belong to the substance of their own block, whether it stands above or below them.

Assays:
Test in all cases: native gel or EMSA; blue native-PAGE (BN-PAGE) of membrane proteins extracted from whole-cell lysates of transfected HEK 293 cells, 10 mM n-dodecyl-β-maltoside, 4 to 16% (or 3 to 12%) Bis/Tris gels, Western blot with anti-GluA1 or anti-GluA2; AMPAR subunit expressed alone or with an auxiliary subunit (cDNA 1:1); oligomeric states (tetramer, dimer, monomer) by molecular mass; tetramer fraction from band intensities; association of an auxiliary subunit read from the upshift of the tetramer band
[1] = target: GluA1 (rat, flip splice variant), wild type (rat (Rattus norvegicus))
[2] = target: GluA1(G816A) (rat (Rattus norvegicus))
[3] = target: GluA1(G816A)-TARP γ-2 tandem (rat (Rattus norvegicus) | rat)
[4] = target: GluA1-TARP γ-2 tandem (rat (Rattus norvegicus) | rat)
[5] = target: GluA1-ΔECD (GluA1 lacking the extracellular ATD and LBD) (rat (Rattus norvegicus))
[6] = target: GluA2(R) (rat, flip splice variant, edited (R) form) (rat (Rattus norvegicus))
[7] = target: GluA2(R)(G823A) (rat (Rattus norvegicus))

Substance: GluA1 (rat, flip splice variant), wild type (receptor)
- stoichiometry N [1]: 4
- tetramer fraction [1]: 0.84

Substance: GluA1(G816A) (receptor)
- tetramer fraction [2]: 0.52

Substance: GluA1-TARP γ-2 tandem
- stoichiometry N [4]: 4

Substance: GluA1-ΔECD (GluA1 lacking the extracellular ATD and LBD) (domain or fragment)
- stoichiometry N [5]: 4

Substance: GluA2(R) (rat, flip splice variant, edited (R) form) (receptor)
- stoichiometry N [6]: 4
- tetramer fraction [6]: 0.89

Other lines, results leading:

- stoichiometry N [3]: 4
Substance: GluA1(G816A)-TARP γ-2 tandem

- tetramer fraction [7]: 0.45
Substance: GluA2(R)(G823A) (receptor)
